We go through one substance from PMC6780499, “Characterization, Recombinant Production and Structure-Function Analysis of NvCI, A Picomolar Metallocarboxypeptidase Inhibitor from the Marine Snail Nerita versicolor” (Marine Drugs, 2019).

No end group written: not given here. A value given as a limit tells only on which side of the number the result lay.

The target in one test is T1, hCPD (Homo sapiens, UniProt O75976).
T1 sequence (O75976 32-1380): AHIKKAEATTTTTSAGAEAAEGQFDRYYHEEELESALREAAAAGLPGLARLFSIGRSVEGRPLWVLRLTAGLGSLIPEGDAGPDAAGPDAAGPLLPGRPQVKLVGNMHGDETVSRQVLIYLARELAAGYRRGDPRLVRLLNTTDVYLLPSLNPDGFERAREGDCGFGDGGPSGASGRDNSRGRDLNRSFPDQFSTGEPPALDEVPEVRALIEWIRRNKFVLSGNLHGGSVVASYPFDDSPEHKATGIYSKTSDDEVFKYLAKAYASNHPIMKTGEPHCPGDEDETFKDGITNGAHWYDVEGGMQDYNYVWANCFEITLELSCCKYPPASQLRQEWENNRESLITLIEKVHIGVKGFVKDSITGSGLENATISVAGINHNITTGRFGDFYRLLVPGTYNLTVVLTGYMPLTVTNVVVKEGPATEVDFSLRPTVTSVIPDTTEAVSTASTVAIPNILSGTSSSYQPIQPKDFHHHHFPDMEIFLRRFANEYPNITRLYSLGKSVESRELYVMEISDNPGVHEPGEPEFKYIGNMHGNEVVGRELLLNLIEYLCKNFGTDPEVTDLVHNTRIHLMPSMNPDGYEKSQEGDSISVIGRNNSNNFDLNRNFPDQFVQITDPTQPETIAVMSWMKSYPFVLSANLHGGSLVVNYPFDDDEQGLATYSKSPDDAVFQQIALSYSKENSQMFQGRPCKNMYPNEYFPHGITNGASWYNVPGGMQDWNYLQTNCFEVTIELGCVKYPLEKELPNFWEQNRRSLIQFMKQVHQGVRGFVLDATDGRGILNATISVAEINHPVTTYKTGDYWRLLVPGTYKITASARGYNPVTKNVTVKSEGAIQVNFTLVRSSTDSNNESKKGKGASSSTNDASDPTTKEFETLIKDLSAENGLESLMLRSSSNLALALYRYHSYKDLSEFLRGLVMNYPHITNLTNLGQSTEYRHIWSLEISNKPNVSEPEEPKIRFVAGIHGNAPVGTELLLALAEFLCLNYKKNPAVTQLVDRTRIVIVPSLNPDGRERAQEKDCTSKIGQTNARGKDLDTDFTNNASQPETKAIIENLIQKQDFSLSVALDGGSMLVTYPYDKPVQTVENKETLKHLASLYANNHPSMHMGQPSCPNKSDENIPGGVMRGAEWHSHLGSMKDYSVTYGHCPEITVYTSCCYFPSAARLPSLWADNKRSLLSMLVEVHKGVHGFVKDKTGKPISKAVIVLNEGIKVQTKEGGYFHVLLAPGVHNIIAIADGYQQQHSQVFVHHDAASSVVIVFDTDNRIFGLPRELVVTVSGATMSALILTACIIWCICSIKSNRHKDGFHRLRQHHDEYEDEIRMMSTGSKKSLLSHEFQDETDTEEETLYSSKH
The experiment in a line: Ki determination, tight-binding inhibition of metallocarboxypeptidase. Conditions: NI: No inhibitory activity detected for the [I]0 range from 1 nM to 1 mM. It is filed as biochemical. How it is done: (§1) Inhibitory activities against CPA- and CPB-type forms (bovine and human variants of CPA1, CPA2, CPA4, CPB1, and TAFI) were assayed for all extracts, subject to the experimental conditions that enzyme (E), substrate (S) and inhibitor (I) concentrations as well as the [I]/[E] ratio and preincubation time followed the requirements for tight-binding inhibitor assays. Similar approaches were followed to measure the activities of proteases of different catalytic types, like pepsin, papain, trypsin and subtilisin [45, 46, 47, 48]. All assays were performed in triplicate at 25 °C in a multiplexed manner. For 96-well assays an iEMS spectrophotometer reader/dispenser FM (Labsystems, Finland) was used with a final reaction volume of 250 μL. For cuvette assays, a Cary 400 Bio spectrophotometer (Varian Inc., Palo Alto, CA, USA) spectrophotometer was used with a final reaction volume of 1 ml. The reactions were followed at 5 s intervals for 5 min and recorded as initial velocities. In the protease inhibition assays, mixtures of activity buffer, biological sample and enzyme were preincubated at 25 °C for 10min, before substrate addition. The assay conditions were as follows: for CPA-like enzymes, 7.0nM CPA, 0.1mM AAFP substrate in 20mM Tris-HCl pH 7.5, 500mMNaCl, 1% v/v dimethyl sulfoxide (DMSO), 0.05% w/v BRIJ-35 was used. For CPB-like enzymes, CPB 3.0nM CPB, 0.1mM AAFA substrate and activity buffer of 20 mM Tris-HCl pH [50].
(§2) The Ki values of natural and recombinant NvCI against bCPA1, hCPA1, hCPA2, rat CPA3, hCPA4, hCPB1, bTAFI, hTAFI, hCPD and hCPZ were determined by measuring the enzymatic residual activity (Vi/V0 = a) at different inhibitor concentrations and using a fixed enzyme and substrate concentrations as described above, where vi and v0 are the fraction of enzymatic activity in the presence and absence of inhibitor, respectively, in terms of initial velocities. The determination of Ki values was carried out on equilibrium conditions ([E0]/Ki ≤ 10), using a previously determined preincubation time of 15 min, required to establish enzyme-inhibitor equilibrium. Working temperature was 37 °C. The best estimates of Ki values were obtained by fitting the experimental data to the equation for tight-binding inhibitors by non-linear regression using the GraphPad Prisma 5 software (GraphPad Software, Inc., San Diego, CA, USA) at p < 0.05. The real Ki values against each of these A/B-type MCPs were calculated according to the equation described by Morrison and Copeland [19, 20].

Another test has as its target T2, hCPB (Homo sapiens, UniProt P15086).
T2 sequence (P15086 111-417): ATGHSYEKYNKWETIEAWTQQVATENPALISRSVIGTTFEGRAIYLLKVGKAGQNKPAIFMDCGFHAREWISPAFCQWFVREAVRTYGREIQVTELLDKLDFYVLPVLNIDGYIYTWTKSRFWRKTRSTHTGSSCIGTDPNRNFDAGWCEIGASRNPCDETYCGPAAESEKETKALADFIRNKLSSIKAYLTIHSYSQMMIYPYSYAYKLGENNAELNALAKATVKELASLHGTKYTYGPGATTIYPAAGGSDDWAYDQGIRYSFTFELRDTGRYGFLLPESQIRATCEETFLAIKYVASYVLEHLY
Described as above. It is filed as biochemical. As to conditions: tight-binding equation fit, equilibrium conditions; substrate AAFA 0.1mM; preincubation 15 min; 37 °C; means (n = 3) ± SD. On the procedure: as §1, §2

The term Ki denotes the equilibrium dissociation constant of an inhibitor or competing ligand from its target. Regarding “NvCI: 53-residue, three-disulphide proteinaceous metallocarboxypeptidase inhibitor from the marine snail Nerita versicolor; major isoform; UniProt P86912 (FHVPDDRPCINPGRCPLVPDATCTFVCKAADNDFGYECQHVWTFEGQRVGCYA; disulfide (positions not given here); also: three disulphides, pairing not given here; UniProt P86912 1-53, looked up)”, the Ki was over 1000 µM in the test with hCPD and 0.000111 ± 4.7e-06 µM with hCPB.
